Here are results for four molecules from patent publication US20230227584A1 (published 2023).

In test [1] the target is T1, human OX40 on the cell surface (activated human T cells; HeLa_hOx40_NFkB_Luc1 reporter cells) (human, UniProt P43489 29-277).
T1 construct: also called hu OX40; CD134
T1 sequence: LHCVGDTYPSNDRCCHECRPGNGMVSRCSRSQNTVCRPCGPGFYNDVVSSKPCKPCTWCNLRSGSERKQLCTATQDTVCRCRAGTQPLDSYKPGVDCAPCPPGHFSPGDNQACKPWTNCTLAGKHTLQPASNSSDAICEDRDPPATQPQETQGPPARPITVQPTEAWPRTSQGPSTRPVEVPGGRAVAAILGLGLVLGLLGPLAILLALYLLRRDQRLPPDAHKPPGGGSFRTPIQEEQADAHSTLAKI
Description: flow cytometry, activated human PBMC gated on CD4+ T cells. For orientation: Flow cytometry measures light scatter and fluorescence of single cells or particles in a stream.

The target of test [2] is T2, FcRn (biotinylated, coupled to streptavidin-sepharose).
T2 construct: also called neonatal Fc receptor
T2 sequence (P55899 24-297, chain 1 of 2): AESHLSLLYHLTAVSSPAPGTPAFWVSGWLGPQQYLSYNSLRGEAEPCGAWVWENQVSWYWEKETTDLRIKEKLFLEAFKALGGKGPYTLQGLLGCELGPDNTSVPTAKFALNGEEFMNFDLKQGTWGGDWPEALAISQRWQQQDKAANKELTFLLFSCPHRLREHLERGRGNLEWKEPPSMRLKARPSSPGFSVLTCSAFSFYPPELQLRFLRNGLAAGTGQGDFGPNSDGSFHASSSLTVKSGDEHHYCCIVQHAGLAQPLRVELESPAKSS
T2 sequence (P61769 21-119, chain 2 of 2, further chain): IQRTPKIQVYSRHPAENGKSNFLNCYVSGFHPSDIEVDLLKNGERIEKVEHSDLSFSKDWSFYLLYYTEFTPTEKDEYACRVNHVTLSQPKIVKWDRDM
Description: FcRn affinity chromatography; retention compared to protein standards with known affinities. On the procedure: For coupling, the prepared receptor was added to streptavidin-sepharose (GE Healthcare). The resulting FcRn-sepharose matrix was packed in a column housing. The column was equilibrated with 20 mM 2-(N-morpholine)-ethanesulfonic acid (MES) and 140 mM NaCl, pH 5.5 (eluent A) at a 0.5 ml/min flow rate. 30 µg of antibody samples were diluted at a volume ratio of 1: 1 with eluent A and applied to the FcRn column. The column was washed with 5 column volumes of eluent A followed by elution with a linear gradient from 20 to 100% 20 mM Tris/HCl and 140 mM NaCl, pH 8.8 (eluent B) in 35 column volumes. The analysis was performed with a column oven at 25° C. The elution profile was monitored by continuous measurement of the absorbance at 280 nm. Retention times were compared to protein standards with known affinities.

The target of test [3] is T1, human OX40 on the cell surface …. Description: cell-based or functional assay.
Test [4] shares this target. Description: cell-based or functional assay. The source holds these as a separate data set.
Test [5] concerns the target T3, human fibroblast activation protein (huFAP) on NIH/3T3-huFAP clone 19 cells (human, UniProt Q12884 1-760).
T3 construct: Mouse NIH/3T3 fibroblasts transfected with vector pETR4921 to express huFAP; also called cell surface FAP
Description: flow cytometry, NIH/3T3-huFAP clone 19 cells. On the procedure:
In another experiment, a mixture of 2 × 10⁵ NIH/3T3-huFAP clone 19 cells and HeLa cells in FACS buffer were added to each well of a round-bottom 96-well plates (TPP, Cat. No. 92097) and the binding assay was performed. Cells were first stained 20 min with LIVE/DEAD™ Fixable Aqua Dead Cell Stain (Molecular probes, Cat.No. L34957) in DPBS, followed after one washing step with 200 µL 4° C. […] Afterwards the cells were washed once with 200 µL FACS buffer at 4° C. and resuspended by a short vortex. Cells were further stained with 50 µL/well of 4° C. cold secondary antibody solution containing Phycoerythrin (PE)-conjugated AffiniPure anti-human IgG Fcy-fragment-specific goat IgG F(ab′)2 fragment (Jackson ImmunoResearch, Cat. No. 109-116-098) and incubated for 30 minutes at 4° C. in the dark. Samples were finally resuspended in 100 µL/well FACS-buffer and acquired the same day using with BD Fortessa running FACS Diva software.

B1: P1AE8875 OX40(MOXR0916) x FAP(1G1a) 3+1 (bispecific antibody, human IgG1, kappa, L234A L235A)
heavy 1: not shown
heavy 2: EVQLVQSGAEVKKPGASVKVSCKASGYTFTDSYMSWVRQAPGQGLEWIGDMYPDNGDSSYNQKFRERVTITRDTSTSTAYLELSSLRSEDTAVYYCVLAPRWYFSVWGQGTLVTVSSASTKGPSVFPLAPSSKSTSGGTAALGCLVEDYFPEPVTVSWNSGALTSGVHTFPAVLQSSGLYSLSSVVTVPSSSLGTQTYICNVNHKPSNTKVDEKVEPKSCGGGGSGGSGGEVQLVQSGAEVKKPGASVKVSCKASGYTFTDSYMSWVRQAPGQGLEWIGDMYPDNGDSSYNQKFRERVTITRDTSTSTAYLELSSLRSEDTAVYYCVLAPRWYFSVWGQGTLVTVSSASTKGPSVFPLAPSSKSTSGGTAALGCLVEDYFPEPVTVSWNSGALTSGVHTFPAVLQSSGLYSLSSVVTVPSSSLGTQTYICNVNHKPSNTKVDEKVEPKSCDKTHTCPPCPAPEAAGGPSVFLFPPKPKDTLMISRTPEVTCVVVDVSHEDPEVKFNWYVDGVEVHNAKTKPREEQYNSTYRVVSVLTVLHQDWLNGKEYKCKVSNKALGAPIEKTISKAKGQPREPQVCTLPPSRDELTKNQVSLSCAVKGFYPSDIAVEWESNGQPENNYKTTPPVLDSDGSFFLVSKLTVDKSRWQQGNVFSCSVMHEALHNHYTQKSLSLSP
light 1: not shown
light 2: EIVLTQSPATLSLSPGERATLSCRASESVDNYGLSFINWFQQKPGQAPRLLIYGTSNRGSGIPARFSGSGSGTDFTLTISSLEPEDFAVYFCQQSNEVPYTFGGGTKVEIKSSASTKGPSVFPLAPSSKSTSGGTAALGCLVKDYFPEPVTVSWNSGALTSGVHTFPAVLQSSGLYSLSSVVTVPSSSLGTQTYICNVNHKPSNTKVDKKVEPKSC
notes: (2+1)', but its chains are those of a MOXR0916 3+1 molecule ending in EPKSC; Human IgG1 Fc, knob-into-hole, PGLALA; also called MOX0916 3+1; MOXR0916 3+1
One may read the EC50 as the concentration that produces a half-maximal response. A lower EC50 goes with higher potency in that assay. Molecule B1 registered an EC50 in test [1] of 0.69 nM. The molecule further returned a FcRn affinity in test [2] of -0.22. Further, in test [3], the “EC50 of NFκB activation (luciferase), HeLa_hOx40_NFkB_Luc1, w/ hu FAP” value (“EC50 of NFκB activation (luciferase) … w/ hu FAP” for short) was 0.31 nM and the “EC50 of NFκB activation (luciferase), HeLa_hOx40_NFkB_Luc1, w/o” value turned out to be 3.94 nM. Further, in test [4], the “CD25 upregulation on CD4+ T cells, AUC compared to reference compound [%]” value (“CD25 upregulation on CD4+ T cells, AUC … [%]” for short) worked out at 100% and the “EC50 of CD25 upregulation on CD4+ T cells, suboptimal TCR stimulation of human PBMC with NIH/3T3-huFAP cells” value (“EC50 of CD25 upregulation” for short) stood at 0.02 nM. The molecule also gave a concentration for a half-maximal effect (EC50) in test [5] of 2.7 nM.

B2: P1AE8871 OX40 (CLC563) x FAP (1G1a) (2+1) C-terminal crossfab fusion (bispecific antibody, human IgG1, kappa, L234A L235A)
heavy 1: not shown
heavy 2: not shown
light 1: not shown
light 2: B1 light 2
notes: 2+1 format; Human IgG1 Fc, knob-into-hole, PGLALA; VL-CH1 chain ends in EPKSC; also called CLC-563 2+1
Take B2: the EC50 in test [1] worked out at 3.19 nM; in test [5] it was 2.51 nM. For the same molecule, the “EC50 of NFκB activation (luciferase) … w/ hu FAP” value in test [3] worked out at 0.21 nM. The “CD25 upregulation on CD4+ T cells, AUC … [%]” value in test [4] was 99%. The “EC50 of CD25 upregulation” value in test [4] was 0.06 nM.

B3: P1AE8872 OX40 (MOXR0916) x FAP (1G1a) (2+1) C-terminal crossfab fusion (bispecific antibody, human IgG1, kappa, L234A L235A)
heavy 1: not shown
heavy 2: EVQLVQSGAEVKKPGASVKVSCKASGYTFTDSYMSWVRQAPGQGLEWIGDMYPDNGDSSYNQKFRERVTITRDTSTSTAYLELSSLRSEDTAVYYCVLAPRWYFSVWGQGTLVTVSSASTKGPSVFPLAPSSKSTSGGTAALGCLVEDYFPEPVTVSWNSGALTSGVHTFPAVLQSSGLYSLSSVVTVPSSSLGTQTYICNVNHKPSNTKVDEKVEPKSCDKTHTCPPCPAPEAAGGPSVFLFPPKPKDTLMISRTPEVTCVVVDVSHEDPEVKFNWYVDGVEVHNAKTKPREEQYNSTYRVVSVLTVLHQDWLNGKEYKCKVSNKALGAPIEKTISKAKGQPREPQVCTLPPSRDELTKNQVSLSCAVKGFYPSDIAVEWESNGQPENNYKTTPPVLDSDGSFFLVSKLTVDKSRWQQGNVFSCSVMHEALHNHYTQKSLSLSP
light 1: not shown
light 2: B1 light 2
notes: 2+1 format; Human IgG1 Fc, knob-into-hole, PGLALA; VL-CH1 chain ends in EPKSC; also called MOX0916 2+1; MOXR0916 2+1
For the molecule B3, in test [1], it took 0.9 nM to reach a half-maximal effect (EC50). Besides, the FcRn affinity in test [2] was determined as 0.15. The “EC50 of NFκB activation (luciferase) … w/ hu FAP” value in test [3] came out at 0.19 nM. In addition, in test [4], the “CD25 upregulation on CD4+ T cells, AUC … [%]” value was 106% and the “EC50 of CD25 upregulation” value was 0.01 nM. The EC50 in test [5] was 1.78 nM.

B4: P1AD3690 untargeted tetravalent OX40 (49B4) antigen binding molecule (4+0) (antibody, V domains shown)
VH: QVQLVQSGAEVKKPGSSVKVSCKASGGTFSSYAISWVRQAPGQGLEWMGGIIPIFGTANYAQKFQGRVTITADKSTSTAYMELSSLRSEDTAVYYCAREYYRGPYDYWGQGTTVTVSS
VL: DIQMTQSPSTLSASVGDRVTITCRASQSISSWLAWYQQKPGKAPKLLIYDASSLESGVPSRFSGSGSGTEFTLTISSLQPDDFATYYCQQYSSQPYTFGQGTKVEIK
Consider B4, for which, in test [3], the “EC50 of NFκB activation (luciferase) … w/ hu FAP” value came to 0.18 nM and the “EC50 of NFκB activation (luciferase), HeLa_hOx40_NFkB_Luc1, w/o” value was 0.23 nM. Besides, in test [4], the “CD25 upregulation on CD4+ T cells, AUC … [%]” value was 13%.
